Measured values from US20230203463, “RNA-GUIDED NUCLEASES AND ACTIVE FRAGMENTS AND VARIANTS THEREOF AND METHODS OF USE” (LifeEDIT Therapeutics, Inc., published 2023).

Tests used:
APG05405 (Bacillus sp.) = test system: T1, APG05405 (Bacillus sp.); experiment: cleavage_in_vitro; conditions: trans cleavage
T1 sequence: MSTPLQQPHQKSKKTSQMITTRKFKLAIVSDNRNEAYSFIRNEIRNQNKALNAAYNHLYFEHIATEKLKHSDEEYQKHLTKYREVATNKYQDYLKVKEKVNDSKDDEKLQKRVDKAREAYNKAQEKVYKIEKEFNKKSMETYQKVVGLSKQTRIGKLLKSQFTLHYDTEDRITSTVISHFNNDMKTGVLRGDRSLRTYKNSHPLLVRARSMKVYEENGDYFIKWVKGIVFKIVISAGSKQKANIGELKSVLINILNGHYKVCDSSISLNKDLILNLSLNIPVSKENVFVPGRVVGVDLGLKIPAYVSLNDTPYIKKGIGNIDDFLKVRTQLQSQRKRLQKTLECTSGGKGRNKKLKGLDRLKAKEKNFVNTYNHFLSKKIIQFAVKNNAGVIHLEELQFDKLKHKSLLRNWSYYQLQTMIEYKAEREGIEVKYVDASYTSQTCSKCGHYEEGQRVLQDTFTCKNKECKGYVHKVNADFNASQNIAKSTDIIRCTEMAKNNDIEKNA

APG09624 = molecular target: T2, APG09624 (Bacillus sp.); experiment: thermal shift; peaks 39 and 44 C vs 38 C without RNA; conditions: tags: C-terminal His10
T2 chain: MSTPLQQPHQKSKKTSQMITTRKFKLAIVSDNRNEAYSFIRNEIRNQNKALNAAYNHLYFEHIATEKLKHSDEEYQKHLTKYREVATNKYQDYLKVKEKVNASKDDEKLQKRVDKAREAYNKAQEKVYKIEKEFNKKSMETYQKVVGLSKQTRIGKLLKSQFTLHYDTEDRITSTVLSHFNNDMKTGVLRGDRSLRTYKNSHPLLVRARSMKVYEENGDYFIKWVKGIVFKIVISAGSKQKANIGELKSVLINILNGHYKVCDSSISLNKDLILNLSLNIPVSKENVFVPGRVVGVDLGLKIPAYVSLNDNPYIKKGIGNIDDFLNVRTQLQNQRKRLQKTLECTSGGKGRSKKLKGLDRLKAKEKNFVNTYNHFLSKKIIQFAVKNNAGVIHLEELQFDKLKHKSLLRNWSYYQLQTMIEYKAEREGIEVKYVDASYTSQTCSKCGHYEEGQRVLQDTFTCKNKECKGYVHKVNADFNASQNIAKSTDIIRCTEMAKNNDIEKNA
Experimental: (§1) RNA binding was confirmed by differential scanning fluorimetry (Niesen, F.H., H. Berglund, and M. Vedadi. 2007. Nat. Protoc. 2: 2212-2221). Dual RNA complexes were produced by mixing an excess of crRNA with tracrRNA in Annealing Buffer (Synthego, 60 mM KCl 6 mM HEPES pH 7). The candidate effector protein and guide RNA (either dual RNA complex or sgRNA) were incubated at final concentrations of 0.5 µM effector protein and 1 µM guide RNA in phosphate buffered saline (PBS, Thermo Fisher). These were incubated for 20 minutes at room temperature and then mixed 1:1 with Sypro Orange dye solution that had been diluted in PBS. A melt curve was obtained measuring fluorescence intensity (FI) as a function of temperature and the first derivative of the melt curve (dFI/dT) was calculated. A shift in the plot of dFI/dT as a function of temperature of the putative RNP relative to the original nuclease indicates RNA binding and was used to evaluate putative guide RNA combinations. […] Peak 1 refers to the temperature associated with the largest observed peak for the given sample. If a second peak is observed, it is indicated in the Peak 2 column. Interpretation of the data regarding the formation of a complex is indicated in the “Binding?” column Table 3. “Yes” indicates binding was observed. “N/A” indicates sufficient data was not available to determine if binding could occur.

APG05405 = molecular target: T3, APG05405 (Bacillus sp.); experiment: thermal shift; peak 43 C vs 36 C without RNA; conditions: tags: C-terminal His10
T3 chain: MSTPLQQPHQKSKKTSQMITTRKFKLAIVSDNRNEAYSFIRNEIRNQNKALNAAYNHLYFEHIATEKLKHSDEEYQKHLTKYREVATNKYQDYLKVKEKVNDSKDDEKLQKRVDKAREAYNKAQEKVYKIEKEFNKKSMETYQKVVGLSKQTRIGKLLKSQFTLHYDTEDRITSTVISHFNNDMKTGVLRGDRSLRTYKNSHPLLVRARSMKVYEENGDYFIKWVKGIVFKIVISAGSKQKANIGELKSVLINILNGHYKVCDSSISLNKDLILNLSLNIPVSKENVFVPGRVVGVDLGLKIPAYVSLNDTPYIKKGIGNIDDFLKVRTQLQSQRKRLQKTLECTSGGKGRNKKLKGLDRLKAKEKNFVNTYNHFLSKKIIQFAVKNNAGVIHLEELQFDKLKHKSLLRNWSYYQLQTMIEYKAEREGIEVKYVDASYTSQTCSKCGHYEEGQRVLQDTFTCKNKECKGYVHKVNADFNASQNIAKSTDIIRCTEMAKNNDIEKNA
Experimental: as §1

GGGAAACAGCUAGAAUGUAACUUAAAGUAGGUCAAUGUUUAAAUUCGAUGUUGCAAUUUGUUUGGACAAGUGGAUUAAAACGUUCCUUGAAAAUCAUAUAAAGCAGCCAGUUUACGGGCUUGGGCGAAUUUGCGUCCAAAGGGUGAGGCCAGGUGUAAGUAAGAACCUACAAAAGCACUCACCAAAGGGUCAAAAAGAUCCUACAUGGAUGUGAGGAUUGAAAUACUACAACAGCCACAACG / TCGTCGGCAGCGTCAGATGTGTATAAGAGACAGAACGACGGCCAGTGAATTNNNNNNNNACTACAACAGCCACAACGTCTATATCATGGGATCCTCTAGAGTCGACCTGCTGTCTCTTATACACATCTCCGAGCCCACGAGAC / GTCTCGTGGGCTCGGAGATGTGTATAAGAGACAGCAGGTCGACTCTAGAGGATCCCATGATATAGACGTTGTGGCTGTTGTAGTNNNNNNNNAATTCACTGGCCGTCGTTCTGTCTCTTATACACATCTGACGCTGCCGACGA [sgRNA Gsg.2 ; dsPCR2]
activity (APG05405 (Bacillus sp.); NEBuffer 2, 37 C, degenerate 8 bp 5' of target, PAM not determined): 768 AU/min

GGGAAACAGCUAGAAUGUAACUUAAAGUAGGUCAAUGUUUAAAUUCGAUGUUGCAAUUUGUUUGGACAAGUGGAUUAAAACGUUCCUUGAAAAUCAUAUAAAGCAGCCAGUUUACGGGCUUGGGCGAAUUUGCGUCCAAAGGGUGAGGCCAGGUGUAAGUAAGAACCUACAAAAGCACUCACCAAAGGGUCAAAAAGAUCCUACAUGGAUGUGAGGAUUGAAAUACUACAACAGCCACAACG / TCGTCGGCAGCGTCAGATGTGTATAAGAGACAGAACGACGGCCAGTGAATTNNNNNTGGAATGGGAACTAAAGTAATGGCAAACGAATTCGTAGGATCCTCTAGAGTCGACCTGCTGTCTCTTATACACATCTCCGAGCCCACGAGAC / GTCTCGTGGGCTCGGAGATGTGTATAAGAGACAGCAGGTCGACTCTAGAGGATCCTACGAATTCGTTTGCCATTACTTTAGTTCCCATTCCANNNNNAATTCACTGGCCGTCGTTCTGTCTCTTATACACATCTGACGCTGCCGACGA [sgRNA Gsg.2 ; dsPCR3]
activity (APG05405 (Bacillus sp.); non-matching guide): 102 AU/min

GGGAAACAGCUAGAAUGUAACUUAAAGUAGGUCAAUGUUUAAAUUCGAUGUUGCAAUUUGUUUGGACAAGUGGAUUAAAACGUUCCUUGAAAAUCAUAUAAAGCAGCCAGUUUACGGGCUUGGGCGAAUUUGCGUCCAAAGGGUGAGGCCAGGUGUAAGUAAGAACCUACAAAAGCACUCACCAAAGGGUCAAAAAGAUCCUACAUGGAUGUGAGGAUUGAAAUUGGAAUGGGAACUAAAGU / TCGTCGGCAGCGTCAGATGTGTATAAGAGACAGAACGACGGCCAGTGAATTNNNNNNNNACTACAACAGCCACAACGTCTATATCATGGGATCCTCTAGAGTCGACCTGCTGTCTCTTATACACATCTCCGAGCCCACGAGAC / GTCTCGTGGGCTCGGAGATGTGTATAAGAGACAGCAGGTCGACTCTAGAGGATCCCATGATATAGACGTTGTGGCTGTTGTAGTNNNNNNNNAATTCACTGGCCGTCGTTCTGTCTCTTATACACATCTGACGCTGCCGACGA [sgRNA Gsg.3 ; dsPCR2]
activity (APG05405 (Bacillus sp.); non-matching guide): 78 AU/min

GGGAAACAGCUAGAAUGUAACUUAAAGUAGGUCAAUGUUUAAAUUCGAUGUUGCAAUUUGUUUGGACAAGUGGAUUAAAACGUUCCUUGAAAAUCAUAUAAAGCAGCCAGUUUACGGGCUUGGGCGAAUUUGCGUCCAAAGGGUGAGGCCAGGUGUAAGUAAGAACCUACAAAAGCACUCACCAAAGGGUCAAAAAGAUCCUACAUGGAUGUGAGGAUUGAAAUUGGAAUGGGAACUAAAGU / TCGTCGGCAGCGTCAGATGTGTATAAGAGACAGAACGACGGCCAGTGAATTNNNNNTGGAATGGGAACTAAAGTAATGGCAAACGAATTCGTAGGATCCTCTAGAGTCGACCTGCTGTCTCTTATACACATCTCCGAGCCCACGAGAC / GTCTCGTGGGCTCGGAGATGTGTATAAGAGACAGCAGGTCGACTCTAGAGGATCCTACGAATTCGTTTGCCATTACTTTAGTTCCCATTCCANNNNNAATTCACTGGCCGTCGTTCTGTCTCTTATACACATCTGACGCTGCCGACGA [sgRNA Gsg.3 ; dsPCR3]
activity (APG05405 (Bacillus sp.); NEBuffer 2, 37 C, degenerate 5 bp 5' of target, PAM not determined): 780 AU/min

B1: crRNA 143 + tracrRNA 145 (ssRNA)
RNA 1: GUCACAUCCUACAUGGAUGUGAGGAUUGAAAUUGGAAUGGGAACUAAAGUAAUGG
RNA 2: AAACAGCUAGAAUGUAACUUAAAGUAGGUCAAUGUUUAAAUUCGAUGUUGCAAUUUGUUUGGACAAGUGGAUUAAAACGUUCCUUGAAAAUCAUAUAAAGCAGCCAGUUUACGGGCUUGGGCGAAUUUGCGUCCAAAGGGUGAGGCCAGGUGUAAGUAAGAACCUACAAAAGCACUCACCAAAGGGUCAACUCGAUACAUU
binding result (APG09624): binds | binding result (APG05405): binds
